Targets include SRSF1 wild type (human, UniProt Q07955 1-248); SRSF1 P89S (human, UniProt Q07955 1-248, P89S); SRSF1 E60D (human, UniProt Q07955 1-248, E60D).
Assay in all cases: EMSA

Here are results for one molecule from publication PMC10865995.

Chain of SRSF1 wild type (Q07955 whole entry): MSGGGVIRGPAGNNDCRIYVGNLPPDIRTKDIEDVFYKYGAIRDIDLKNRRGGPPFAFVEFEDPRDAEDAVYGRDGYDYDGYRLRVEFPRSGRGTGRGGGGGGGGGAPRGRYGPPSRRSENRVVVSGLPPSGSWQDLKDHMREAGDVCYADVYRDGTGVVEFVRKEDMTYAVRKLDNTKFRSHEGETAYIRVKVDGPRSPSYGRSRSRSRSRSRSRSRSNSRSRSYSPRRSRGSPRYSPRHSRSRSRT
Chain of SRSF1 E60D (Q07955 whole entry E60D): as the sequence (Q07955 whole entry) above, with E60D counted along it
Chain of SRSF1 P89S (Q07955 whole entry P89S): as the sequence (Q07955 whole entry) above, with P89S counted along it

B1: ssRNA (64mer) (ssRNA)
RNA: UUUCCCAGCACCAGAUUCAGCAUACGUUACCGAUCGUACGUUCGAUGCUGGCUACUGCUAGCUU
Take B1: the binding result in the series with SRSF1 wild type was “binds”; with SRSF1 P89S it was “no binding”; with SRSF1 E60D, “binds”.
